In the DeepSol protein solubility set:

Test: soluble on expression in E. coli; label from the status in PepcDB or PDB records

Sequence | soluble on expression in E. coli
MAHHHHHHMKLLLQADTPGGAAEREANPKYLSTDTLIIVPGHGVLNAPNASEWKNESEWCLEPHQLRAGVVLPLCFASHIRRGLEILRDQINTSILIFSGGQTCGIAGPRSEALGYYIVAKESKLFGIFEPEYVAKDIMNGRIFTEEFARDSYENLLFSIARFYEVTGHFPGSVVVVGWKHKAERFTMYHREAIRFPADKFTYVGLDFADAEPFVEDLQPYQVAKPYTDENALSSVSKDMYLCDAGRRTRSKRNPYFRVPPYLVSCPPLRQLLQHCGPELIDTRRVPWK | not soluble
MQDPRHPQGLPLSPGLPKRQRQDRTIYNWKQQEVLENHFKEEQYPDYDTRQELAEMLNLREYQVQVWFKNRRAKRSREQWFQKQLQQLQKHPQQQHPQQQHPQQQLQQQQPQQQPQQQQPQQQQLHQQPQ | soluble
MYSGARQGVISGKVTHHNEVFYEFFDKDYKYLFGKVKDIFTDVGAWVEYNVEKVQSHPKNCLHFAQNVNTEVKRTNAPTCDVFSSNRFQFDVREFNKVDFFQFDNADRQLSFKGTIRFNSNKNQFYHEYYGDVLVGEAEKLIRFGINEIDVMMNLYRSDEYTRGPHWYVKHYINKGKSYNINGYLSINGFVLRGPGGVVRNKNQVNIPPDALRPNNPVPNLSNGTSSQELAAAPNRNNFPTYATQRPRRNSDWDDEEPQTTAAPAGTSNSTAAASRPQVGDGKTGFRAFGGDAAPQSRGFDDGAIQRRAFGGLTTAPAAAPNRNNFPTYATQRPRRNSDWDDEDPQTTAAPAGTFNSAAASFRPQVGNGKAGSRAFGGDTAPQRSGLDDGATQRRAFEGLTIAPAAASNRNSFPTFATQRPRRNSDWGDEEPETTVAPAGKSNSTAAASRPQVGNGKTGSRPFGGDTAPQRRGLDDGAIQRRAFGGLTTAPAAAPNQNNFPTFATQRPRRNSDWDDEEPQATDAPAGTFNSAAASFRPQVGNGKAGSRAFGGDTAPQTSGLDDGAIERRAFGALATAPREVVLGGERAAGQLRPRGPESTIQPRRVPQSRQFGGVSATSNDPTTPEPRRINETPRVLLPPQSKGRRVDS | not soluble
MALLREYKEIAYQWGIWKTEESPEELLALLPDPERYEQQLTLFSSPHRKLEWLSVRVLLYQLLGEEKTIEYAPSGKPHLADSSYFISISHTRGYVAVILSPVSEVGIDIEQYGQRVHKVAHKYMRPDELISEYQGEDTWSLLLHWSAKEVMFKCMDTSEVDFREHLRIMPFQVCEHGEFPAEEYRTEHKKKFMIRYLLHPDFVMTWQVTSAYSVNECDIMKKMQ | not soluble
MCLAIPMQIESIDGFTARCAAKGVWRDVSLFMMQDAPPEVGDFVMVHVGYAIQKVTEADARSAWELLDQILEENGA | not soluble
MEYGNLRRQAASLKKSLFDQGYLDEQFCQVEDLQDEANPNFAEEVVSLFFKDSTRVMLNFEQAIEKHPKDFARWDTHMQQLKGSCSSIGASRVKNECTSFRNFCGEENAEGCTRSFQKVKREHAVLRQKWESYFQLLRQAGPAGTATRPAGK | not soluble
MSLATKDPTAVERANLLNMAKLSIKGLIESALSFGRTLDSDYPPLQQFFVVMEHCLKHGLKGRKSFLSYNKTIWGPLELVEKLYPEAEEIGASVRDLPGLKTPLGRARAWLRLALMQKKMADYLRCLIIQRELLSEFYEYHALMMEEEGAVIVGLLVGLNVIDANLCVKGEDLDSQVGVIDFSMYLKNEEGHHHHHH | soluble
MEGDTISRMMGSGVQMDGKILQTFEKSFVQVQNILDHNRLLINEINQNHESKIPDNLGRNVGLIRELNNNVRRVAHLYVDLSNNFSKSMEASSEGDSSEGRGNRRIRPA | soluble
MAGAKHIIDTSFLTQLDRYAIPLSRRVTAVHTGSHQSTRTGAGLDIIDHRKYNQGDSLKRIDWNLYARTEKLYIRRFEEDKNLNMVILLDASSSMLFPDNTPNKFEYAATVAAGVSYIVMKHNDVYTIATFADDVDYTKSHKGRDDFLRTIDNLTQIPVSGTTKLADCADSIYPRIKSKSMVLIMSDFLDNLDSVQKAVNRLSRHELVIVHIYDENEINLPESVDGTVKFIDSETGEEISFTVGAGFKKEYASEYSKHMAELEKIAYDFKIPYFRVSIKNEPFDTVLKIIGEG | not soluble
KHHHHHHIKPGALCVIDTPEGKGTGFFSGNDIVTAAHVVGNNTFVNVCYEGLMYEAKVRYMPEKDIAFITCPGDLHPTARLKLSKNPDYSCVTVMAYVNEDLVVSTAAAMVYGNTLSYAVRTQDGMSGAPVCDKYCRVLAVHQTNTGYTGGAVIIDPTDFHPV | soluble
MAHHHHHHMSTNINEEKCLEGDDIKYEKPDTHKNFWKSFGLNNEAGKLLYHLYGESNKIKPNILSSKHDGDKNKNDKKKEDAKLNTTYRKPQIHYPSLKKKAVKENPIDTIKHRKPLSKILEETQNYDCIKDIPISIGMNRETEKNKLHNIFVEEKCLMVPPSCAPMILTQEEKKEIIEKAQQRYIYINEENKSREEKHIQALRNYKLELIQELNEKRKLLQDIINEDKNIQGNISINQSDKRVSNKGNSYNIIQIKNDIEQCQKSIKKIEDNLNTYE | not soluble
MGHHHHHHSHMGLWQQISNCMPDLALCSDIKFFLRCLERWLNRNSSALQLPARSTQKEIISAFPTKVPSSSHWDWLDSGCSPQKASRSRVGCRLTREAQGVRELPPLAKGSCEGLCREERGIPAQILCFPHGLCNPQTRRFPWVPAPPGPWVSSKKLGSHLGRH | not soluble
MGSDKIHHHHHHMIILVGGEKGGSGKSCLAQNIAVFLTVECGASVIMVDCDPQRTTSDWIQARNNNGTLASINCVQLYGKIRNDLLSLEQHYDYVIVDCGGQDNLALRATMSVASHVLMPLRPKRRDLKTVSHMDDIVATCMMINPKMRASFVITQCPSLPNQANRIFEAKEVCKTYDINVLDAITYSRNIYDDSEESGLSVMETQPKGKAAEEIRSIACEMLQASSATEIRNRLAEKQMDKLRGNYGSGRSQEKLYAV | not soluble
MAHHHHHHMKGVIFCLVVLLWRQAWVSSKSHKCDFTKEKYLLSGEKEVSCEIDANPSDDITFICPNKIDSLCFHTVNISKNINQNKSTMSIQDLLYGSVVYGNTLFISPYVRTNTPFYCFCNLDTVTIQKFLKINRFLKDDDELSEADVMKHLKGGNVSEAQADEYLNKALNRFKKMKDLSKFFNDQADNTTKLNLPKSLNIPNDILNYDVYNSSNNRNDIVVKDEVTNKQIISKRGIMSVFVRSNNNVIKGCDFGNNNKNYFSHPISVAGKVNNKVCKIQGKPGELVGFKCAFEENGKVEPPNCFDQVLHKNKVTDLKTLIPGYASYTNKHSSKYPYYLKIPHFVNEQYTIQCKCKSNNSQNEYTFELDIQPGESEVVLNSFKTS | not soluble
MGSDKIHHHHHHAQDDANCNSNSSISHEAVKAGNFKDAYTPWKAVLENCPTLRFYTFTDGYKILKGLLGQIKDRNSAEYKKYFDELMNTHDLRMKYTQEFLGKGVKVSSEDEALGIKAVDYIAFAPKVDVNQAYDWLKKSVDAAKAESAAATLFYFLQMSHDKLKEDPAHKEQFIQDYLAASEYADDAIAAADKESVKKAFGGIKDNLVALFINSGTADCESLQGIYGPKVETNQTDLNYLKKVISIMKMMKCTDSDAYQQASFYVYKIEPSAEAATGCAYQAYKKGDIDGSVKFFDEAINLETDNAKKAEKAYAAASVLTTAKKLSQARSYAQKAISFNENYGAPYILIANLYAMSPNWSDESALNKCTYFAVIDKLQKAKSVDPSVTEEVNKMISRYSAYTPQAKDLFMLGYKAGDRITIGGWIGESTTIR | not soluble
MSVASLPECVKNFFPTEQLEFSSSITADEKPVLHEVFQKHSCFSQCGEMIDEVSKKHPELGKRLATVLEGNKKRLDGLSPAAVEYAKKLIHMVTTTLCSLTVGKPIDDADAKRLHQEFQSLSSEDQAALRKNNPDIKF | not soluble
MIIPEYGRTLTPEEWRPVVDEMLEATHIIFTTHENSDGDGLGSQVALALALKALGKEVAIFNPTEVPPNYLFLKELHEINLFRDRDEESMQEFFLADLLVVLDANLHDRIGRLWPHVEFARQMSRLKVLCIDHHLEPEDFADITVCETYASSTGELVCDLVTALELRTGQQLFTPEVASALYAAIMTDTGSFRFPKTTPYTYRLAGMLVEKGADPELVYDRIYNAL | not soluble
MIMQEKIKEIASRVRELRELSEISVEKMAEYLQVSKEIYEKYENGTEDIPASILFEIAHRLQVDMATLLTGEEPRMNVFTVTRSGKGVSVERREQYRYQNLAEKFIHKKAEFFIVTVDPKPQGTKPDTNSHPGQEFNYVLEGSLKVYIHHNEIILNEGDSIYFDSNYQHAMEAMNGKTAKFLAVIM | not soluble
MAHHHHHHMRSGPCPLPPAVAARSLLSPFGIGVSKRLALVGSGNSITALLVKENVPAGTPLLLAPDAALLTCQGALDADVDGLVPPPAEMLELLKRDTAQLDHVYLAYYLSLRCFTNTEDWFSSQIHRFKDSGSASQEDTASSRIWERFAQKYVTAPAPVFMAALQYVWESCFRKPATEADSASAPLPAALAVAPVVDVASQSRNATNSALTATTAKALKETHLHSDITGARQALLAKNDAYVYWVLTAITDIPVGGEVSVSSESVL | soluble
MGSDKIHHHHHHMSQILLIHSSVHGYTQKICEYLQRQLIEQDQLVTVASLAEAPDLALFDKVYIGASIRHGKHRPALYQFIEDHRAELDNKPSGFFSVSLVARKPNKNTPQTNSYMQQFLSQSPWQPKLLQVFGGNLDYQGYGAMDRNIIRFIMWLTKGPTDPNTKVEFTDWQKVDEFAQQIIEA | not soluble
MMRPDAKVEKVYLYPKPVDFRKSIDGLAALVELDIKVAVFDPVLFVFLNRHRNRVKILYWERNGFCLWLKRLESERFKTSPDETDEAIVLTVQELNWLLDGFDLWRNRPHKVLTPRFVA | not soluble
MSLHGEKAPFPLTLIHINDLHARFDETNQKSSTCTNSKECIAGIARVYHTIKQLKSEYKTKNPLYLNAGDNFQGTLWYNLLRWNVTAYFIKELPPDAMTLGNHEFDHSPKGLAPYLAELEKMKIPTVVANLEKNGEPALKDSKIARSIVLKVGNRKVGVIGALYDKTHLVAQTGMVTLTNSIEAVRKEAQELKKKNVNIIVVLSHCGLDGDKQLAEEAGDLIDVIVGAHSHSLLLNKDAKVPYDTKYDTIEGDYPLVVKKSNNHTVLITQARSFGKYVGRLTVNFDCEGEVQSWEGYPIYMNNSVKEGHHHHHH | soluble
MALEESLIDLERFCAKAWRVYAKEDPLSHLSFNEFDYLRVIQVFPEGVRITDLADELQVTKPSASNMVVRLEKKGLVKRIACNEDARAKRVLLTEDVAEKMSLEQIVYKDISDQMMLKLNEQEAKQLQSLLNKALGN | not soluble
MEGIIDKENERVRRFFALLDDMEKKVERLARDNRPPFNGERFLTDRELSGMLKISRRCLQDYRDQGRIPYIQLGGKILYRQSDIERLLEENYHPALV | not soluble
MAHHHHHHMHRGPGKRQTAPKEAAQYQFIKKWDLQMRETWDELEPFKGLPKPKVQFGNEAAEVIWPYALLLENVIKVHPYTKSIYVYYSQRQSTPLGELAARVAKRVSQAYLIPITFHNSHVYVEAEMLLEYSETPWVVVHCLDGTHKLIPVKPQAGQTVKEGAEEVLNGIVSACNEIGSAVKNPKEVMRLLSERPLQNQYVRVNYQWYGDTPEERMSHLVKWDYEPEEVVPQLRNRTQHVLDWMNYDGNLPTHNSVRVNIHREAARMRKPNVSAGPKTFFNSSGSRANARTARFDNSRSSQS | not soluble
MAHHHHHHMRPVTRSPLLVAAVVVAATLCLNGDNAILSLSSGVRLAHANGPITKDQCFILNPQPTVTSCNAYLPPIVDLYGSLPYDTTPDYADCVKERCLCTGAATSTAIKTSGFFCNSSGWMESGYTTCNVLVDCFSKFWRCINRALYMRYLTDRENLDSGEVDLITDLISHGSHPGEPFDITDTFRSCRLMMCAAANSRQNCGLVTCLPNYTQCDEYIRPPPLPYTHPLCTQGCRAALLMMALTIAAVSFSACCFCCCPAQVRISEPVLMEEVPAHKVELSSMRSEVEAQARRHRTNDPYTQ | not soluble
